# IntAct's records for PubMed 31477895
# B1: Ubiquitin carboxyl-terminal hydrolase 15 (Homo sapiens), Q9Y4E8 (parent)
# chain: MAEGGAADLDTQRSDIATLLKTSLRKGDTWYLVDSRWFKQWKKYVGFDSWDKYQMGDQNVYPGPIDNSGLLKDGDAQSLKEHLIDELDYILLPTEGWNKLVSWYTLMEGQEPIARKVVEQGMFVKHCKVEVYLTELKLCENGNMNNVVTRRFSKADTIDTIEKEIRKIFSIPDEKETRLWNKYMSNTFEPLNKPDSTIQDAGLYQGQVLVIEQKNEDGTWPRGPSTPKSPGASNFSTLPKISPSSLSNNYNNMNNRNVKNSNYCLPSYTAYKNYDYSEPGRNNEQPGLCGLSNLGNTCFMNSAIQCLSNTPPLTEYFLNDKYQEELNFDNPLGMRGEIAKSYAELIKQMWSGKFSYVTPRAFKTQVGRFAPQFSGYQQQDCQELLAFLLDGLHEDLNRIRKKPYIQLKDADGRPDKVVAEEAWENHLKRNDSIIVDIFHGLFKSTLVCPECAKISVTFDPFCYLTLPLPMKKERTLEVYLVRMDPLTKPMQYKVVVPKIGNILDLCTALSALSGIPADKMIVTDIYNHRFHRIFAMDENLSSIMERDDIYVFEININRTEDTEHVIIPVCLREKFRHSSYTHHTGSSLFGQPFLMAVPRNNTEDKLYNLLLLRMCRYVKISTETEETEGSLHCCKDQNINGNGPNGIHEEGSPSEMETDEPDDESSQDQELPSENENSQSEDSVGGDNDSENGLCTEDTCKGQLTGHKKRLFTFQFNNLGNTDINYIKDDTRHIRFDDRQLRLDERSFLALDWDPDLKKRYFDENAAEDFEKHESVEYKPPKKPFVKLKDCIELFTTKEKLGAEDPWYCPNCKEHQQATKKLDLWSLPPVLVVHLKRFSYSRYMRDKLDTLVDFPINDLDMSEFLINPNAGPCRYNLIAVSNHYGGMGGGHYTAFAKNKDDGKWYYFDDSSVSTASEDQIVSKAAYVLFYQRQDTFSGTGFFPLDRETKGASAATGIPLESDEDSNDNDNDIENENCMHTN
# Variants of: B1
# Details: with syvn1_human SYVN1, Q86TM6
# Sequence of syvn1_human SYVN1, Q86TM6 (Q86TM6 whole entry): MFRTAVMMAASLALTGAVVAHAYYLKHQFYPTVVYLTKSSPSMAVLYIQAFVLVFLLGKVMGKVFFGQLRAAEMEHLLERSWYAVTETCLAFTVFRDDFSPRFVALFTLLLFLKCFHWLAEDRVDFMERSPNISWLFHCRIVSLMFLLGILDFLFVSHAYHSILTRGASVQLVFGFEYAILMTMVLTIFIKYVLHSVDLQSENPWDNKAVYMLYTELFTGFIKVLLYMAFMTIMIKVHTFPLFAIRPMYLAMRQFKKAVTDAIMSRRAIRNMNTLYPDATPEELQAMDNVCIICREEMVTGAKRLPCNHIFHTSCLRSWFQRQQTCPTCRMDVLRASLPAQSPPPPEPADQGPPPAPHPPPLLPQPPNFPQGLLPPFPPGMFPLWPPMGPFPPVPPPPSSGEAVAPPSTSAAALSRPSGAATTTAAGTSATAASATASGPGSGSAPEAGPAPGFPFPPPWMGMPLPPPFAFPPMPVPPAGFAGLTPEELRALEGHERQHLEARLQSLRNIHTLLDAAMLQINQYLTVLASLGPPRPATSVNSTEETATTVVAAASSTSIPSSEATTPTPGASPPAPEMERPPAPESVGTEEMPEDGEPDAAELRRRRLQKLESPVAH
row,Variant,effect of a mutation on the interaction
1,K154R,with no effect
2,K228R,with no effect
3,K21R,with no effect
